Source: paper PMC7793584 (Science Advances, 2021)
Blank lines part the entries; values can stand above or below the molecule they belong to.

B1: Hda3 (natural protein)
chain: MDLLRILDTKPIPTIVDATTLGISGNTSGDYWLPTTMSLYQKELTDQIVSLHYSDILRYFETSHYKEDVILESMKTMCLNGSLVATHPYLLIDHYMPKSLITRDVPAHLAENSGKFSVLRDLINLVQEYETETAIVCRPGRTMDLLEALLLGNKVHIKRYDGHSIKSKQKANDFSCTVHLFSSEGINFTKYPIKSKARFDMLICLDTTVDTSQKDIQYLLQYKRERKGLERYAPIVRLVAINSIDHCRLFFGKKFDKNSREYLENVTAAMVILRDRLGTLPPDLRPIYSQKLHYLVEWLENPTVPWPLPDIYPLKQYTSMDVERSLLTEVHFKKSDDQLEDAFSNCSKKRGRHGANKAASSTVAGIEDNITPSFYSTKRLKNDYYTNPLKQDMTQLTGITTADNSSNVNYHLSSGIITHKLIQSMGEVYMDICVQKQELDDYSCLDDLQNDHLKFFSNEDEKIIKEYETVLRTNNENLNRSHELEVENNLKFSQIETLEKDIETLKGSLMAQGETLSKLKDAFVKTDNVQDEIEKEERVSVSRDTEKKYMEQEIKRAVDAIRENEEETHKLNEKQNGLESELKLKFEKSEISTKELNEKIGFLKKELKLENDLNEELVGQLSKTMDNLENLTIPRVRTQNGNTKKKSRAKKPGNV
B2: Hda2 (natural protein)
chain: MSRKNSKKLKVYYLPVTLTQFQKDLSEILISLHAKSFKASIIGEPQADAVNKPSGLPAGPETHPYPTLSQRQLTYIFDSNIRAIANHPSLLVDHYMPRQLLRMEPTESSIAGSHKFQVLNQLINSICFRDREGSPNEVIKCAIIAHSIKELDLLEGLILGKKFRTKRLSGTSLYNEKHKFPNLPTVDSTINKDGTPNSVSSTSSNSNSTSYTGYSKDDYDYSVKRNLKKRKINTDDWLFLATTKHLKHDQYLLANYDIDMIISFDPMLEVELPALQVLRNNANKDIPIIKLLVQNSPDHYLLDSEIKNSSVKSSHLSNNGHVDDSQEYEEIKSSLLYFLQARNAPVNNCEIDYIKLVKCCLEGKDCNNILPVLDLITLDEASKDSSDSGFWQPQLTKLQYSSTELPLWDGPLDIKTYQTELMHRAVIRLRDIQDEYAKGTVPLYEKRLNETQRQNQLDEIKNSVGLTFKKKQEVEKSINDSEKRLKHAMTESTKLQNKINHLLKNRQELENFNKLPSNTISSENHLEEGSALADKLKEYIDKNATLFNKLKELQQANAEKSKLNDELRSKYQIESSKAAESAQTLKILQESMKSLENEVNGPLTKFSTESLKKELERLQNDFQSLKARNKFLKNYITLMNRQYDLKNKNNVQVEKAAANGTRFRSTRSNTPNYT
B3: Hda1 (enzyme)
chain: MDSVMVKKEVLENPDHDLKRKLEENKEEENSLSTTSKSKRQVIVPVCMPKIHYSPLKTGLCYDVRMRYHAKIFTSYFEYIDPHPEDPRRIYRIYKILAENGLINDPTLSGVDDLGDLMLKIPVRAATSEEILEVHTKEHLEFIESTEKMSREELLKETEKGDSVYFNNDSYASARLPCGGAIEACKAVVEGRVKNSLAVVRPPGHHAEPQAAGGFCLFSNVAVAAKNILKNYPESVRRIMILDWDIHHGNGTQKSFYQDDQVLYVSLHRFEMGKYYPGTIQGQYDQTGEGKGEGFNCNITWPVGGVGDAEYMWAFEQVVMPMGREFKPDLVIISSGFDAADGDTIGQCHVTPSCYGHMTHMLKSLARGNLCVVLEGGYNLDAIARSALSVAKVLIGEPPDELPDPLSDPKPEVIEMIDKVIRLQSKYWNCFRRRHANSGCNFNEPINDSIISKNFPLQKAIRQQQQHYLSDEFNFVTLPLVSMDLPDNTVLCTPNISESNTIIIVVHDTSDIWAKRNVISGTIDLSSSVIIDNSLDFIKWGLDRKYGIIDVNIPLTLFEPDNYSGMITSQEVLIYLWDNYIKYFPSVAKIAFIGIGDSYSGIVHLLGHRDTRAVTKTVINFLGDKQLKPLVPLVDETLSEWYFKNSLIFSNNSHQCWKENESRKPRKKFGRVLRCDTDGLNNIIEERFEEATDFILDSFEEWSDEE

Columns and labels:
[1] = target: HDAC protomer complex (Hda1_(2)-Hda2-Hda3 heterotetrameric complex) (S. cerevisiae) (UniProt P53973); test: cryo-EM structure
Hda1 [2] = target: B3; test: cryo-EM structure
Hda2 = target: B2; test: cryo-EM structure
Hda1 [3] = target: B3; test: SEC-MALS
SEC-MALS = target: the molecule itself; test: SEC-MALS

stoichiometry N [1]: 2
Molecule: HDAC protomer complex (Hda1_(2)-Hda2-Hda3 heterotetrameric complex) (from UniProt P53973;Q06629;Q06623)

Molecule: B1
binding result (Hda1 [2]): binds
binding result (Hda2): binds

Molecule: B2
binding result (Hda1 [3]): binds

Molecule: B3
stoichiometry N (SEC-MALS): 2
